The values that follow come from article PMC7307101.

The target in assay [1] is trimeric influenza virus polymerase of A/England/195/2009(pH1N1) (PB2, PB1-Gluc1, PA). In words: split-luciferase assay. The conditions noted are these: parent: est. 1.5; read off a plot.
In assay [2] the target is trimeric influenza virus polymerase of A/turkey/England/50-92/1991(H5N1) (PB2, PB1-Gluc1, PA). In words: split-luciferase assay. The conditions noted are these: parent: est. 30; read off a plot.

With “human ANP32A-Gluc2 (from UniProt P39687) I106V; P156S”, the response stood at 3.5 NLR in assay [1] and 55 NLR in assay [2].
